Test results reported in the RNAGym collection of RNA variant scans (doi:10.7554/elife.80360).

B1: CPEB3 Ribozyme (parent)
chain: GGGGGCCACAGCAGAAGCGUUCACGUCGCGGCCCCUGUCAGAUUCUGGUGAAUCUGCGAAUUCUGCUGU

Variants of: B1
Assay: self-cleavage, relative activity (ratio to wild type); higher = more cleavage; co-transcriptional
GGGGGCCACAGCAGACGCGUUCACGUCGCGGCCCCUGUCAGAUUCUGGUGAACCUGCGAAUUCUGCUGU [A16C U53C] showed a self-cleavage of 0.152.
GGGGGCCACAGCAGACGCGUUCACGUCGCGGCCCCUGUCAGAUUCUGGUGAAGCUGCGAAUUCUGCUGU [A16C U53G] gave a self-cleavage of 0.251.
GGGGGCCACAGCAGACGCGUUCACGUCGCGGCCCCUGUCAGAUUCAGGUGAAUCUGCGAAUUCUGCUGU [A16C U46A] gave a self-cleavage of 0.51.
Work on GGGGGCCACAGCAGACGCGUUCACGUCGCGGCCCCUGUCAGAUUCUGGUGAAUCUGCGAAUUCUUCUGU [A16C G65U] yielded a self-cleavage of 0.13.
In the case of GGGGGCCACAGCAGACGCGUUCACGUCGCGGCCCCUGUCAGAUUCUGGUGAAUCUGCGAAUUCUACUGU [A16C G65A], the self-cleavage is reported as 0.155.
Work on GGGGGCCACAGCAGACGCGUUCACGUCGCGGCCCCUGUCAGAUUCUGGCGAAUCUGCGAAUUCUGCUGU [A16C U49C] yielded a self-cleavage of 0.377.
With GGGGGCCACAGCAGACGCGUUCACGUCGCGGCCCCUGUCAGAUUCUGGAGAAUCUGCGAAUUCUGCUGU [A16C U49A] the self-cleavage was 0.419.
Variant GGGGGCCACAGCAGACGCGUUCACGUCGCGGCCCCUGUCAGAUUCUGGGGAAUCUGCGAAUUCUGCUGU [A16C U49G] has a self-cleavage of 0.319.
Work on GGGGGCCACAGCAGACGCGUGCACGUCGCGGCCCCUGUCAGAUUCUGGUGAAUCUGCGAAUUCUGCUGU [A16C U21G] yielded a self-cleavage of 0.0655.
In the case of GGGGGCCACAGCAGACGCGUACACGUCGCGGCCCCUGUCAGAUUCUGGUGAAUCUGCGAAUUCUGCUGU [A16C U21A], the self-cleavage is reported as 0.273.
Work on GGGGGCCACAGCAGACGCGUUCACGUCGCGGCCCCUGUCAGAAUCUGGUGAAUCUGCGAAUUCUGCUGU [A16C U43A] yielded a self-cleavage of 0.118.
In the case of GGGGGCCACAGCAGACGCGUUCACGUCGCGGCCCCUGUCAGAUUCUGUUGAAUCUGCGAAUUCUGCUGU [A16C G48U], the self-cleavage is reported as 0.375.
GGGGGCCACAGCAGACGCGUUCACGUCGCGGCCCCUGUCAGAUUCUGGUGAAUCAGCGAAUUCUGCUGU [A16C U55A] gave a self-cleavage of 0.153.
For GGGGGCCACAGCAGACGCGUUCACGUCGCGGCCCCUGUCAGAUUCUGGUGAAUCGGCGAAUUCUGCUGU [A16C U55G], the self-cleavage was 0.204.
GGGGGCCACAGCAGACGCGUUCACGUCGCGGCCCCUGUCAGAUUCUGGUGAAUCUGCGAAUUCUGCUGA [A16C U69A] gave a self-cleavage of 0.451.
GGGGGCCACAGCAGACGCGUUCACGUCGCGGCCCCUGUCAGAUUCUGGUGAAUCUGCGAAUUCUGCUGG [A16C U69G] gave a self-cleavage of 0.588.
For GGGGGCCACAGCAGACGCGUUCACGUCGCGGCCCCUGGCAGAUUCUGGUGAAUCUGCGAAUUCUGCUGU [A16C U38G], the self-cleavage was 0.15.
GGGGGCCACAGCAGACGCGUUCACGUCGCGGCCCCUGCCAGAUUCUGGUGAAUCUGCGAAUUCUGCUGU [A16C U38C] showed a self-cleavage of 0.137.
Variant GGGGGCCACAGCAGACGCGUUCACGUCGCGGCCCCUGACAGAUUCUGGUGAAUCUGCGAAUUCUGCUGU [A16C U38A] has a self-cleavage of 0.269.
Work on GGGGGCCACAGCAGACGCGUUCACGUCGCGGCCCCUGUCAGAUUCUGGUGAAUCUUCGAAUUCUGCUGU [A16C G56U] yielded a self-cleavage of 0.145.
With GGGGGCCACAGCAGACGCGUUCACGUCGCGGCCCCUGUCAGAUUCUGGUGAAUCUGCGAAUUCUGCAGU [A16C U67A] the self-cleavage was 0.331.
Work on GGGGGCCACAGCAGACGCGUUCACGUCGCGGCCCCUGUCAGAUUCUGGUGAAUCUGCGAAUUCUGCGGU [A16C U67G] yielded a self-cleavage of 0.257.
In the case of GGGGGCCACAGCAGACGCGUUCACGUCGCGGCCCCUGUCAGAUUCUGGUGAAUCUGCGAAGUCUGCUGU [A16C U61G], the self-cleavage is reported as 0.848.
Variant GGGGGCCACAGCAGACGCGUUCACGUCGCGGCCCCUGUCAGAUUCUGGUGAAUCUGCGAAUUCGGCUGU [A16C U64G] has a self-cleavage of 0.119.
In the case of GGGGGCCACAGCAGAGGCGUUCACGUCGCGGCCCCUGUCAGAUUCUGGUGAAUCUGCGAAUUCUGCUGU [A16G], the self-cleavage is reported as 0.946.
GGGGGCCACAGCAGACGCGUUCACGUCGCGGCCCCUGUCAGAUUCUGGUCAAUCUGCGAAUUCUGCUGU [A16C G50C] gave a self-cleavage of 0.301.
Work on GGGGGCCACAGCAGACGCGGUCACGUCGCGGCCCCUGUCAGAUUCUGGUGAAUCUGCGAAUUCUGCUGU [A16C U20G] yielded a self-cleavage of 0.285.
For GGGGGCCACAGCAGACGCGUUCACGUCGCGGCCCCUGUCAGAUUCUGGUGAAUCUGCCAAUUCUGCUGU [A16C G58C], the self-cleavage was 0.28.
Variant GGGGGCCACAGCAGACGCGUUCACGUCGCGGCCCCUGUCAGAUUCUGGUGAAUCUGCUAAUUCUGCUGU [A16C G58U] has a self-cleavage of 0.494.
In the case of GGGGGCCACAGCAGACGCGUUCACGUCGCGGCCCCUGUCAGAUUCUGGUGAAUCUGCAAAUUCUGCUGU [A16C G58A], the self-cleavage is reported as 0.189.
Variant GGGGGCCACAGCAGACGCGUUCACGUCGCGGCCCCUGUCAGAUCCUGGUGAAUCUGCGAAUUCUGCUGU [A16C U44C] has a self-cleavage of 0.178.
GGGGGCCACAGCAGACGCGUUCACGUCGCGGCCCCCGUCAGAUUCUGGUGAAUCUGCGAAUUCUGCUGU [A16C U36C] gave a self-cleavage of 0.165.
GGGGGCCACAGCAGACGCGUUCACGUCGCGGCCCCGGUCAGAUUCUGGUGAAUCUGCGAAUUCUGCUGU [A16C U36G] gave a self-cleavage of 0.108.
For GGGGGCCACAGCAGACGCGUUCACGUCGCGGCCCCAGUCAGAUUCUGGUGAAUCUGCGAAUUCUGCUGU [A16C U36A], the self-cleavage was 0.115.
GGGGGCCACAGCAGACGCGUUCACGCCGCGGCCCCUGUCAGAUUCUGGUGAAUCUGCGAAUUCUGCUGU [A16C U26C] showed a self-cleavage of 0.264.
Variant GGGGGCCACAGCAGACGCGUUCACGGCGCGGCCCCUGUCAGAUUCUGGUGAAUCUGCGAAUUCUGCUGU [A16C U26G] has a self-cleavage of 0.102.
GGGGGCCACAGCAGACGCGUUCACGACGCGGCCCCUGUCAGAUUCUGGUGAAUCUGCGAAUUCUGCUGU [A16C U26A] showed a self-cleavage of 0.158.
Variant GGGGGCCACAGCAGACGCGUUCACGUCGCGGCCCCUGUCAGAUUCUGGUGAAUCUGCGAAUUCUGCUCU [A16C G68C] has a self-cleavage of 0.454.
With GGGGGCCACAGCAGACGCGUUCACGUCGCGGCCCCUGUCAGAUUCUGGUGAAUCUGCGAAUUCUGCUAU [A16C G68A] the self-cleavage was 0.61.
